Experiments:
[1] = target: T1, Csx19 subunit of the Synechocystis sp. PCC 6803 Type III-Dv complex (Synechocystis sp. PCC 6803); experiment: cryo-EM structure of the binary complex, 2.5 Å
T1 construct: Untagged, co-expressed from pPF2434 in E. coli; one copy in the complex
T1 chain: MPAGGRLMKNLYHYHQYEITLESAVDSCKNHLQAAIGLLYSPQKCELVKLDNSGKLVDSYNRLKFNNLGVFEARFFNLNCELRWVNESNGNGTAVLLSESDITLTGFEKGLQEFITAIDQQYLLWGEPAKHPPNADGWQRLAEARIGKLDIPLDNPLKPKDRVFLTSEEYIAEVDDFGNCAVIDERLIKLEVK
Description: Fully assembled Type III-D binary complex was diluted to a concentration of 0.3 mg/ml in SEC buffer before 2.5 μl of sample was added to a quantifoil 1.2/1.3 grid that was glow discharged for 1 minute. Sample was applied to the grid in an FEI Vitrobot MarkIV kept at 100% humidity and 4° C. before blotting for 5.5 seconds with a force of 0. For the ssRNA target-bound complex, non-self ssRNA was mixed with the binary complex with a 2:1 molar ratio of RNA:Binary complex in SEC buffer to a final protein concentration of 0.3 mg/mL. Grids of the target-bound complex were frozen identical to that of the binary complex. Both grids were loaded to an FEI Titan Krios (Sauer Structural Biology Lab, University of Texas at Austin) operating at 300 kV. Images were taken at a pixel size of 0.81 Å/pixel with a dose rate of 10.6 e⁻/pixel/s for 5 seconds using a Gatan K3 direct electron detector, giving a final dosage of 80.5 e⁻/Å². Data collection was automated using SerialEM using a defocus range of −1.2 to −2.2 μm.
To delineate the architecture of this Type III-Dv effector, we used cryo-EM to determine a 2.5-Å resolution structure of the complex containing the nt crRNA (FIG. 1e,f, FIG. 8). To gain preliminary insights, we generated initial models of each subunit using Alphafold 2. […]

[2] = target: T2, Cas7-Cas5-Cas11 fusion subunit of the Synechocystis sp. PCC 6803 Type III-Dv complex (Synechocystis sp. PCC 6803); experiment: co-purification by metal affinity (His6-Cas10) and SEC; SDS-PAGE and MS; membership of one complex
T2 construct: Untagged, co-expressed from pPF2434 in E. coli; one copy in the complex; also called Cas7-5-11; Cas5-Cas7-Cas11
T2 chain: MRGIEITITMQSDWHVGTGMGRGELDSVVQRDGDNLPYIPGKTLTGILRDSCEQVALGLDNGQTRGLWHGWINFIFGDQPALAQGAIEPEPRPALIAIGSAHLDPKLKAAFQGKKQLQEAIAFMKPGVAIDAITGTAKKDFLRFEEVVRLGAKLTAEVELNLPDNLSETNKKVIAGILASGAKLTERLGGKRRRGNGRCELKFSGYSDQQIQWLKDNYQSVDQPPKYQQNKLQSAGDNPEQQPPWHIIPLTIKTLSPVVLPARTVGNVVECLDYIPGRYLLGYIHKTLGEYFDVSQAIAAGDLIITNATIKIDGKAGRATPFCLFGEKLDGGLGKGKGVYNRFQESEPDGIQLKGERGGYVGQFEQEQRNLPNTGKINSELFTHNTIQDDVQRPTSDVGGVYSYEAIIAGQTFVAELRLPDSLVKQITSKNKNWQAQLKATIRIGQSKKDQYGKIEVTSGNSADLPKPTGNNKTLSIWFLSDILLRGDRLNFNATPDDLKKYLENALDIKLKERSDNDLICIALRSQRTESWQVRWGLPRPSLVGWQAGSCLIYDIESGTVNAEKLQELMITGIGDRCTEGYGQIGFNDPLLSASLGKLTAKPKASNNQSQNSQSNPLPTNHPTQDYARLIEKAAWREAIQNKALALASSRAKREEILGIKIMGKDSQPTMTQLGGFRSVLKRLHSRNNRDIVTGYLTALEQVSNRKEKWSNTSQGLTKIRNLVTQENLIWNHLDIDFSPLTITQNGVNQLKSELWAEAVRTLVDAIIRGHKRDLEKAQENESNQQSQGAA
Description: Cells were lysed by a French pressure cell press (American Industry Company) at 10,000 psi, and the lysate was clarified by centrifugation at 15,000×g for 15 min. […] The fractions containing the Type III-Dv complex were pooled and treated with TEV protease and incubated at 4° C. during overnight dialysis in SEC buffer (10 mM HEPES-NaOH, PH 7.5, 100 mM KCl, 5% Glycerol, 1 mM DTT). The sample was applied to a second HisTrap column; however, due to inefficient TEV cleavage, the complex unexpectedly bound the column and eluted with high imidazole. The complex was further purified by size exclusion chromatography (SEC) on a HiLoad 16/600 Superdex 200 column (GE Healthcare) equilibrated in SEC Buffer). Mutant Type III-Dv complexes were similarly expressed and purified, except TEV protease was omitted. Purified complexes were typically concentrated to 1.5 mg/ml using a centrifugal concentrator (Amicon; 100 kDa MWCO), aliquoted, and stored at −80° C.
Denaturing liquid chromatography mass spectrometry (LC-MS) was performed on a Dionex UltiMate 3000 nanoLC system coupled to a Thermo Orbitrap Fusion Lumos Tribrid mass spectrometer (San Jose, Ca). The trap column (3 cm) and analytical column (30 cm) were packed in-house with polymer reverse-phase (PLRP) packing material. […]

B1: Cas10 subunit of the Synechocystis sp. PCC 6803 Type III-Dv CRISPR-Cas complex, with N-terminal His6 tag and TEV site (other)
chain: MFLVLIETSGNQHFIFSTNKLRENIGASELTYLATTEILFQGVDRVFQTNYYDQWSDTNSLNFLADSKLNPAIDDPKNNADIEILLATSGKAIALVKEEGKAKQLIKEVTKQALINAPGLEIGGIYVNCNWQDKLGVAKAVKEAHKQFEVNRAKRAGANGRFLRLPIAAGCSVSELPASDFDYNADGDKIPVSTVSKVKRETAKSAKKRLRSVDGRLVNDLAQLEKSFDELDWLAVVHADGNGLGQILLSLEKYIGEQTNRNYIDKYRRLSLALDNCTINAFKMAIAVFKEDSKKIDLPIVPLILGGDDLTVICRGDYALEFTREFLEAFEGQTETHDDIKVIAQKAFGVDRLSACAGISIIKPHFPFSVAYTLAERLIKSAKEVKQKVTVTNSSPITPFPCSAIDFHILYDSSGIDFDRIREKLRPEDNTELYNRPYVVTAAENLSQAQGYEWSQAHSLQTLADRVSYLRSEDGEGKSALPSSQSHALRTALYLEKNEADAQYSLISQRYKILKNFAEDGENKSLFHLENGKYVTRFLDALDAKDFFANANHKNQGE
notes: Whole gene amplified from Synechocystis genomic DNA and co-expressed in E. coli from pPF2434; The complex also holds a 37-nt crRNA; also called His6-TEV-Cas10; N-His6-tagged Cas10; not shown: TEV cleavage was inefficient, so
- binding result [1]: binds
- binding result [2]: binds
